The values below come from publication PMC10058814, “Identification of a Thermostable Levansucrase from Pseudomonas orientalis That Allows Unique Product Specificity at Different Temperatures” (Polymers, 2023).

One may read the Km as the concentration of substrate that gives half-maximal velocity. As usually defined, the kcat is the number of substrate molecules converted per active site and unit of time at saturation. Usually kcat/Km stands for the turnover number divided by the Michaelis constant.

Substrate in this series: OC[C@H]1O[C@@](CO)(O[C@H]2O[C@H](CO)[C@@H](O)[C@H](O)[C@H]2O)[C@@H](O)[C@@H]1O
Description: kinetics of glucose and fructose release; nonlinear Michaelis-Menten fit. Particulars: hydrolysis reaction; assay conditions for Cedi-LS not stated separately. It counts as biochemical, Celerinatantimonas diazotrophica. The source says: kinetics of glucose and fructose release; nonlinear Michaelis-Menten fit on Cedi-LS

B1: Cedi-LS (Celerinatantimonas diazotrophica) (protein)
chain: MTLQDKVMTTAWSRADALKVHADDPTTTQPEVSISFPTMDENLFIWDTLPLRTLDGSIVSVDGWSVIFTLTAIKDPETYKNADGSYDITTDWENRHGRARIYYWYAKDSKNWILGGRVMREGVSPTTREWAGTPILLNDQGDIELYYTCVTPGATIAKVRGKITTTENAVELSEFDHVTELFSADGFYYQTEEQNQFWNFRDPSPFIDPKDGRLYMVFEGNVAGNRGSHEITTTDMGDVPPGYSDVGGARYQAGCIGLAVATDTDGNNWQLLPPLITAVGVNDQTERPHFVFKDGKYYLFTISHKYTYADGLTGPDGVYGFVSDSLFGPYQPLNGSGLVLGNPSSQPFQTYSHCVMPNGLVTSFIDSVPSTSDDDYDGDYRIGGTEAPTVQIKLEGNQTFMVKEFDYGFIPPMKNIVLQ
notes: recombinant levansucrase from the authors' earlier work; construct not described here
For B1, the Km is listed as 57 ± 2 mM, the kcat amounted to 332 ± 22 s⁻¹ and the kcat/Km was determined as 5800 M⁻¹ s⁻¹.
